Earlier results, collected in article PMC2912364.
pKd: −log10 of the molar value.

Molecular target: IL-15Rα (UniProt Q13261)
Sequence of UniProt Q13261 (Q13261 31-205): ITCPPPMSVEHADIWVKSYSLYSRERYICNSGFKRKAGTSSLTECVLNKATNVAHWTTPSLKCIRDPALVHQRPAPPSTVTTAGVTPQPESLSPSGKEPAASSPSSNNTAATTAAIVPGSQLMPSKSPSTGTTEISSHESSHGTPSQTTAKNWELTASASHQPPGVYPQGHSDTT

For IL-15 (from UniProt P40933), the pKd is given as 10.42.
